The values below come from article PMC10447908 (2023).

The term IC50 denotes the point on the concentration scale where inhibition reaches its midpoint. Low readings indicate greater potency in that assay, high ones weaker potency in that assay.

Assay in all cases: FACS
Test [1] has as its target SARS-CoV-2 Spike receptor binding domain, Wuhan (ancestral) variant (SARS-CoV-2, UniProt P0DTC2, biotinylated in vitro when needed).
Test [2] addresses SARS-CoV-2 Spike receptor binding domain, Omicron variant (SARS-CoV-2, UniProt P0DTC2, biotinylated in vitro when needed).
Test [3] concerns the target SARS-CoV-2 Spike receptor binding domain, Delta variant (SARS-CoV-2, UniProt P0DTC2, biotinylated in vitro when needed).

B1: Xiang-Liu 1 (designed binder)
chain: NDDELHMLMTDLVYEALHFAKDEEIKKRVFQLFELADKAYKNNDRQKLEKVVEELKELLERLLSEEDPCACESILKFEAKVEGLLQALTRKLEAVSGRLAVLENRIIDKEWILQKIYEIMRLLDELGHAEASMRVSDLIYEFMKKGDERLLEEAERLLEEVER
In the case of B1, the IC50 came to 9.3 nM in test [1], 36.4 nM in test [2] and 5.1 nM in test [3].

B2: Xiang-Liu 2 (designed binder)
chain: NDDELHMLMTDLVYEALHFAKDEEIKKRVFQLFELADKAYKNNDRQKLEKVVEELKELLERLLSEEDPCACESILKFEAKVEGLLQALTRKLEAVSGRLAVLENRIIQVQLVESGGGLVQAGGSLRLSCAASGRTFSNDALGWFRQAPRKEREFVAAINWNSGTYYADSVKGRFTISRDNAKNTVYLQMNSLKPEDTAVYSCAAASDYGLPREDFLYDYWGQGTQVTVSS
For the molecule B2, the IC50 worked out at 12.6 nM in test [1], 5.2 nM in test [2] and 6.8 nM in test [3].
